Source: patent US20050070689A1 (Genentech, published 2005)
One block for each binder: values may come before it.

Legend:
[1] = biological target: T1, TACIs expressed on transfected COS 7 cells (human, UniProt O14836 1-292); assay: AP-APRIL staining of transfected cells, in situ AP activity
T1 sequence: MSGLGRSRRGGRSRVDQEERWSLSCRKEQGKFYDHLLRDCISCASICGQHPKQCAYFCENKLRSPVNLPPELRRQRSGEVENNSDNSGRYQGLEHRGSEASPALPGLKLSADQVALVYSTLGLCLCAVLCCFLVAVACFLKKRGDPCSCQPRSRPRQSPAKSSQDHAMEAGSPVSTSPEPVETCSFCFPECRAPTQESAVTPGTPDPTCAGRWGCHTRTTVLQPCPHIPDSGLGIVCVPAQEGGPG

[2] = biological target: T2, murine BR3 expressed on transfected COS 7 cells (murine, UniProt Q9D8D0 1-175); assay: AP-ligand conditioned medium on transfected COS 7 cells, in situ AP staining
T2 construct: also called mBR3
T2 sequence: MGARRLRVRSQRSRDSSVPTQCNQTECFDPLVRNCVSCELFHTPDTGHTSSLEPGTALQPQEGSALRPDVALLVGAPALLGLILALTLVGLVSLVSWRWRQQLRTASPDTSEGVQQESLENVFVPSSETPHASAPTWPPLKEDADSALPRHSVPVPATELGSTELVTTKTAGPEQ

[3] = biological target: T3, human TACI (265 amino acid form) expressed on transfected COS 7 cells (human, UniProt O14836 1-258); assay: as above
T3 construct: also called hTACI (265)
T3 sequence: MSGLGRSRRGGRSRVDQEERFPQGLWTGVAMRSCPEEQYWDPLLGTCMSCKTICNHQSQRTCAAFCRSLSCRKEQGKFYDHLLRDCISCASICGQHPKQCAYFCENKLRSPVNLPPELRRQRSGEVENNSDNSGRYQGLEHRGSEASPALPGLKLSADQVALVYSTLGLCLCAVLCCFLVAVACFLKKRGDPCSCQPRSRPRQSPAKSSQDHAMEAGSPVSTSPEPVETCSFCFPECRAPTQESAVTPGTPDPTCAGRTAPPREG

[4] = biological target: T4, human BR3 expressed on transfected COS 7 cells (human, UniProt Q96RJ3 1-184); assay: figure legend: AP-ligand conditioned medium on transfected COS 7 cells, in situ AP staining
T4 construct: also called hBR3
T4 sequence: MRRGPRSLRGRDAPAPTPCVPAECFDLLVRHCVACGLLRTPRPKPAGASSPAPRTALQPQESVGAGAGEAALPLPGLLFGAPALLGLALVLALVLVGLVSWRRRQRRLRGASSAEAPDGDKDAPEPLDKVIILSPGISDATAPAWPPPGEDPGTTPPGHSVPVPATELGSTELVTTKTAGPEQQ
Protocol: (a) COS 7 transfected with hBR3 (1,2) or TACI (3,4) were incubated with conditioned medium containing AP-TALL-1 (1,3) or AP-April (2,4). Cells were washed, fixed, and stained for the AP activity in situ. (b) COS7 cells transfected with TALL-1 (1,2) or April (3,4) were incubated with hBR3-hFc (1,3) or TACI-hFc (2,4). Cells were washed, fixed, and bound receptor-hFc protein was detected using a biotinylated goat anti-human antibody followed by Cy3-streptavidin. (c) BR3-hFc (1,2) or TACI-hFc (3,4) was incubated with Flag-TALL-1 (1,3) or Flag-April (2,4). The receptor-Fc fusion proteins precipitated with protein-A-agarose were subjected to immunoblotting with anti-Flag antibody. Equivalent amounts of ligand (middle panel) or receptor-hFc (bottom) were used in the binding experiment. (d) 293E cells (Invitrogen) were transfected with 0.25 ug of a NF-kB luciferase reporter gene construct, 25 ng pRL-TK, and indicated amounts of expression constructs encoding hBR3, mBR3, TACI and BCMA. NF-kB activation was determined 20-24 hours later using the Dual-Luciferase reporter assay kit (Promega).

AP-TALL-1 = biological target: T5, AP-TALL-1 (human, UniProt Q9Y275 136-285); assay: AP-TALL-1 binding to transfected cells
T5 construct: Used as conditioned medium of transfected 293 cells; AP is at the N-terminus of TALL-1; Flag precedes AP (as described for AP-APRIL); not shown: human placental alkaline phosphatase (AP), amplified from pAPtag-5
T5 sequence (Q9Y275 136-285): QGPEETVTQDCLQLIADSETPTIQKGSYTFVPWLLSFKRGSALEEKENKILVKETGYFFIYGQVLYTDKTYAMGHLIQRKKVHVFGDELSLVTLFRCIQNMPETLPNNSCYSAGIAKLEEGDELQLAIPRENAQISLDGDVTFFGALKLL

[5] = biological target: T6, APRIL (full length cDNA clone without Flag tag) expressed on transfected COS 7 cells (human, UniProt O75888 105-250); assay: receptor-Fc staining of transfected COS 7 cells, biotinylated anti-human antibody and Cy3-streptavidin
T6 construct: also called APRIL-transfected COS 7 cells
T6 sequence: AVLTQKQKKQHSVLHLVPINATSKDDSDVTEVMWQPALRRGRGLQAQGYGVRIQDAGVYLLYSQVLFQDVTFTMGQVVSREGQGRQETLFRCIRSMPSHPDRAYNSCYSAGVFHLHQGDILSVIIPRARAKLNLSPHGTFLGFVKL
Protocol: Transfected COS 7 cells were subsequently incubated with TACI.ECD.hFC immunoadhesin, hBr3-hFc, or mBR3-hFc (prepared as described above). Cells were incubated with the TACI ECD-IgG (or a TNFR1-IgG construct prepared as described in Ashkenazi et al., Proc. Natl. Acad. Sci., 88:10535-10539 (1991)) at 1 μg/ml for 1 hour in PBS. Cells were subsequently washed three times with PBS and fixed with 4% paraformaldehyde in PBS. Cell staining was visualized by incubation with biotinylated goat anti-human antibody (Jackson Labs, at 1:200 dilution) followed by Cy3-streptavidin (Jackson Labs, at 1:200 dilution). Murine BR3-Fc, like hBR3-hFc, also only bound TALL-1-transfected but not APRIL-transfected COS 7 cells (data not shown). […] In contrast, TACI-hFc fusion protein bound cells transfected with either TALL-1 or APRIL (FIG. 10).

binding result [1]: binds
binding result [2]: no binding
binding result [3]: binds
binding result [4]: no binding
B1: AP-APRIL (ligand)
chain: T6 sequence
notes: APRIL fused C-terminally to AP, AP fused C-terminally to Flag; not shown: human placental alkaline phosphatase (AP)

binding result (AP-TALL-1): binds
B2: BCMA expressed on transfected cells (receptor)
chain: MLQMAGQCSQNEYFDSLLHACIPCQLRCSSNTPPLTCQRYCNASVTNSVKGTNAILWTCLGLSLIISLAVFVLMFLLRKISSEPLKDEFKNTGSGLLGMANIDLEKSRTGDEIILPRGLEYTVEECTCEDCIKSKPKVDSDHCFPLPAMEEGATILVTTKTNDYCKSLPAALSATEIEKSISAR
notes: The expression construct is only called 'BCMA'; also called BCMA-transfected cells

binding result [5]: no binding
B3: Murine BR3-Fc (Fc fusion)
chain: MGARRLRVRSQRSRDSSVPTQCNQTECFDPLVRNCVSCELFHTPDTGHTSSLEPGTALQPQEGSALRPDVA
notes: Only 'prepared as described above' is said; also called mBR3-hFc; not shown: human IgG1 Fc region
